Measurements: publication doi:10.1101/2023.06.06.543969 (2023)
Positions count from the first letter of the chain named. In names and notes the source's numbering stands. Read-outs that look alike come from different tables or passages of the source.

What was measured:
Assay in all cases: BLI
[1] = biological target: HCV (isolate H77) E2 domain (HCV (isolate H77))
[2] = biological target: T1, biotinylated SARS-CoV-2 fusion peptide (SARS-CoV-2, biotin on the N-terminus)
T1 peptide: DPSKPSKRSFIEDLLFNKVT

[3] = biological target: T2, influenza hemagglutinin (HA) from H1N1 A/California/07/2009 (influenza A virus H1N1 …)
[4] = biological target: His-tagged HIV Env MPER peptide (HIV)
[5] = biological target: T3, biotinylated αTSR domain of P. falciparum circumsporozoite protein (P. falciparum, biotinylated)
T3 chain: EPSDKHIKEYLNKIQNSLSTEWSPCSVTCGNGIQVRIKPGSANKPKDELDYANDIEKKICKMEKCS

[6] = biological target: T2, influenza hemagglutinin (HA) from H1N1 …; remark: listed apart in the source
[7] = biological target: His6-tagged SARS-CoV-2 receptor-binding domain (SARS-CoV-2, UniProt P0DTC2)

B1: HC84.26.5D Fab (WT) (Fab, V domains shown)
VH: VQPVQSGAEVKKPGSSVKVSCEASGGTHSNYVITWVRQAPGQGLEWMGGFIPDFRTAMYAQGFQGRVTITADESTSLAYMELTNLRSEDTAVYYCARGPLSRGYYDYWGPGTLVTVSS
VL: YVLTQPPSVSVAPGQTASITCSGDKLGDKYVSWYQQRPGQSPVLVLYQDSKRPSGIPERFSGSNSGNTATLTISGTQAMDEADYYCQAWDSSALVFGGGTKLTVL
B1 was tested, and the Kd [1] was 0.9 nM.

B2: COV44–62 Fab (WT) (Fab, V domains shown)
VH: QMQLMQSGAEVKKPGASVTVSCKASGDTFSDYRIHWVRQAPGQGLEWMGRMNPKSGDTNFAQKFQGRVTMTRDMSINTAYMTLSGLTFDDTALYYCASLLIVGGFDPLDDFEVWGQGTMVTISS
VL: QSALTQPPSASGSPGQSVTISCSGTSSDVGGYNFVSWYQHHPGKAPKILIYEVTKRPSGVPDRFSGSKSGNTASLTVSGLQAEDEADYYCSSYGGTNNLLFGGGTKLTVL
With B2 the Kd [2] was 26 nM.

B3: 3E1 Fab (WT) (Fab, V domains shown)
VH: QVQLQESGPGLVKPSETLSLTCSVSGASISSYYWIWIRQPAGKGLEWIGRFYTSGSPNYNPSLRSRVTMSVDTSKNQFSLKLTSVTAADTAVYYCAREEHITFGGVIVRYWGQGTLVTVSP
VL: DIQMTQSPATLSASVGDRVSITCRASQSISSWLAWYQQKPGKAPKLLIYKASSLESGVPSRFSGSGSGSEFTLTISSLQPDDFAIYYCQQYNSYPWTFGQGTKVEIK
Binder B3 has a Kd [3] of 6.9 nM.

B4: 4E10 Fab (WT) (Fab, V domains shown)
VH: QVQLVQSGAEVKRPGSSVTVSCKASGGSFSTYALSWVRQAPGRGLEWMGGVIPLLTITNYAPRFQGRITITADRSTSTAYLELNSLRPEDTAVYYCAREGTTGWGWLGKPIGAFAHWGQGTLVTVSS
VL: EIVLTQSPGTQSLSPGERATLSCRASQSVGNNKLAWYQQRPGQAPRLLIYGASSRPSGVADRFSGSGSGTDFTLTISRLEPEDFAVYYCQQYGQSLSTFGQGTKVEVK
Work on B4 yielded a Kd [4] of 9.1 nM.

B5: Fab234 (WT) (Fab, V domains shown)
VH: EVQLVESGGGLVKPGGSLRLSCAASGFNFSTHIMNWVRQAPGKGLEWVSSISSSGTYIYYADSMKGRFTISRDNPKNSLYLQMNSLRAEDTAVYYCARARGFIQFHYYMDVWGKGTTVAVSS
VL: SYVLTQPPSVSVAPGKTARITCGGNNIGSKSVHWHQQRPGQAPVLVVYDDKIRPSGIPERFSGSNSGNTATLIISRVEAGDEADYYCQVWHSSSDPVVFGGGTKLTVL
B5 gave a Kd [5] of 0.2 nM.

B6: 5J8 Fab (WT) (Fab, V domains shown)
VH: EVQLVESGPGLVKPSDILSLTCAVSGYSISSNYYWGWIRQPPGKGLEWIGSIYHSGSTYYKPSLESRLGISVDTSKNQFSLKLSFVSAADTAVYYCARHVRSGYPDTAYYFDKWGQGTLVTVSS
VL: SYVLTQPPSVSVAPGETARISCGGNNIGTKVLHWYQQTPGQAPVLVVYDDSDRPSGIPERFSGSNSGNTATLTISRVEVGDEADYYCQVWDISTDQAVFGGGTKLTVL
Binder B6 has a Kd [6] of 4 nM.

B7: GAR12 Fab (WT) (Fab, V domains shown)
VH: EVQLVQSGGGLVQPGGSLRLSCAASGFTFSSYAMSWVRQAPGKGLEWVLSISGSGGSTYYADSVKGRFTISIDNSKKTVYLQMNSLRAEDTAVYYCAKSGEQQLVQAEYFHHWGQGTLVTVSS
VL: DIQMTQSPSTLSASVGDRVTITCRASQSIGRWLAWYQQKPGKAPKLLIYDASSLESGVPSRFSGSGFGTEFTLTISSLQPDDFATYYCQQCDSLLTFGGGTKLEIK
Binder B7 has a Kd [7] of 3.5 nM.

B8: GAR12 Fab VL D50K (Fab, V domains shown)
VH: B7 VH
VL: B7 VL with D50K
B8 was tested, and the Kd [7] was 153 nM.
